{"source": "patent US20190233493A1", "about": "(Sanofi, published 2019)", "note": "*1 amine or outer side, *2 acyl side, *3 side chain or, on linkers, in order; H or OH if unused. Primed or numbered codes have the meaning given here. Side-chain parts run from the residue outwards. [ ]: non-standard residue; d: D form. The star is where a group is joined. PEG12 = NCCOCCOCCOCCOCCOCCOCCOCCOCCOCCOCCOCCOCCC(=O)O; γGlu = O=C(O)[C@H](CCC(=O)[*:2])N[*:1]; Stearoyl = CCCCCCCCCCCCCCCCCC(=O)*; Palmitoyl = CCCCCCCCCCCCCCCC(=O)*; Nle = CCCC[C@H](N)C(=O)O; PEG2″ = not defined here; Aib = CC(C)(N)C(=O)O", "data": [{"molecular_target": "T1, RXFP1 receptor (UniProt Q9HBX9 1-757, limits assumed)", "T1 sequence (looked up)": "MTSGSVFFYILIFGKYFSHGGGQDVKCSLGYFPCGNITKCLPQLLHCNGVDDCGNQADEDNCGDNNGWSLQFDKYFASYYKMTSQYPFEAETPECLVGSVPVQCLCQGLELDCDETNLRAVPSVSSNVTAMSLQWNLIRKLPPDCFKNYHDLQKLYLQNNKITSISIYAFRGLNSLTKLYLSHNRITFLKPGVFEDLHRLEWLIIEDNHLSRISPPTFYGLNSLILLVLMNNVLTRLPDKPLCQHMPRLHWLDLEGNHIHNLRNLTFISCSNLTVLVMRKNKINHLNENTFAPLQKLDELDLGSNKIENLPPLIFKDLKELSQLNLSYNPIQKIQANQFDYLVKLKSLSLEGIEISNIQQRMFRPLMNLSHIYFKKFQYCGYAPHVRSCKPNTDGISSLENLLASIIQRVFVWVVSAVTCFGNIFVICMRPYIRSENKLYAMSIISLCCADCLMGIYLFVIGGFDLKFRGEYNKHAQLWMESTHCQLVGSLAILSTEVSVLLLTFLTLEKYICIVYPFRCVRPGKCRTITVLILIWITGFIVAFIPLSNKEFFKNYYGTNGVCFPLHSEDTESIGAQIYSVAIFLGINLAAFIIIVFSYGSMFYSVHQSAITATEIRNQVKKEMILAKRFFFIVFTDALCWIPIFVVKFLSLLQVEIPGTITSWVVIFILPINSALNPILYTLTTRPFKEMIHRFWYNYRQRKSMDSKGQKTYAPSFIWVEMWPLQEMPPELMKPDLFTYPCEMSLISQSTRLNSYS", "assay": "cell-based or functional assay", "units": {"EC50 (nM), OVCAR 5 cells (cAMP)": "nM", "EMax, OVCAR 5 cells (cAMP)": "%"}, "values": [{"binder": "Ac-LEGREKVRAQI[Aib][Aib]EG[Nle]STWS[Aib]RKK([PEG2″-PEG2″-γGlu-γGlu-γGlu-Stearoyl])-NH2", "note": "[peptide of SEQ ID NO: 67]", "EC50 (nM), OVCAR 5 cells (cAMP)": 0.39, "EMax, OVCAR 5 cells (cAMP)": 89}, {"binder": "Ac-LEGREKVRAQI[Aib][Aib]EG[Nle]STWS[Aib]RKKK([PEG2″-PEG2″-γGlu-γGlu-γGlu-Stearoyl])-NH2", "note": "[peptide of SEQ ID NO: 71]", "EC50 (nM), OVCAR 5 cells (cAMP)": 0.52, "EMax, OVCAR 5 cells (cAMP)": 87}, {"binder": "Ac-LEGREKVR[Aib]QI[Aib][Aib]EG[Nle]STWS[Aib]RKKK([PEG2″-PEG2″-γGlu-γGlu-γGlu-Stearoyl])-NH2", "note": "[peptide of SEQ ID NO: 69]", "EC50 (nM), OVCAR 5 cells (cAMP)": 0.56, "EMax, OVCAR 5 cells (cAMP)": 87}, {"binder": "Ac-LEGREKVRAQI[Aib][Aib]EGQSTWS[Aib]RKKK([PEG2″-PEG2″-γGlu-γGlu-γGlu-Stearoyl])-NH2", "note": "[peptide of SEQ ID NO: 70]", "EC50 (nM), OVCAR 5 cells (cAMP)": 0.28, "EMax, OVCAR 5 cells (cAMP)": 86}, {"binder": "Ac-LEGREKVRAK(Ac)I[Aib][Aib]EG[Nle]STWS[Aib]RKK(Ac)K([PEG12-γGlu-γGlu-γGlu-Palmitoyl])-NH2 (SMILES CCCCCCCCCCCCCCCC(=O)N[C@@H](CCC(=O)N[C@@H](CCC(=O)N[C@@H](CCC(=O)NCCOCCOCCOCCOCCOCCOCCOCCOCCOCCOCCOCCOCCC(=O)NCCCC[C@H](NC(=O)[C@H](CCCCNC(C)=O)NC(=O)[C@H](CCCCN)NC(=O)[C@H](CCCNC(=N)N)NC(=O)C(C)(C)NC(=O)[C@H](CO)NC(=O)[C@H](Cc1c[nH]c2ccccc12)NC(=O)[C@@H](NC(=O)[C@H](CO)NC(=O)[C@H](CCCC)NC(=O)CNC(=O)[C@H](CCC(=O)O)NC(=O)C(C)(C)NC(=O)C(C)(C)NC(=O)[C@@H](NC(=O)[C@H](CCCCNC(C)=O)NC(=O)[C@H](C)NC(=O)[C@H](CCCNC(=N)N)NC(=O)[C@@H](NC(=O)[C@H](CCCCN)NC(=O)[C@H](CCC(=O)O)NC(=O)[C@H](CCCNC(=N)N)NC(=O)CNC(=O)[C@H](CCC(=O)O)NC(=O)[C@H](CC(C)C)NC(C)=O)C(C)C)[C@@H](C)CC)[C@@H](C)O)C(N)=O)C(=O)O)C(=O)O)C(=O)O)", "note": "[peptide of SEQ ID NO: 66]", "EC50 (nM), OVCAR 5 cells (cAMP)": 0.57, "EMax, OVCAR 5 cells (cAMP)": 83}, {"binder": "Ac-LEGREKVRAK(Ac)I[Aib][Aib]EG[Nle]STWS[Aib]RKK([PEG2″-PEG2″-γGlu-γGlu-γGlu-Stearoyl])-NH2", "note": "[peptide of SEQ ID NO: 73]", "EC50 (nM), OVCAR 5 cells (cAMP)": 0.12, "EMax, OVCAR 5 cells (cAMP)": 90}, {"binder": "Ac-LEGREKVRAK(Ac)I[Aib][Aib]EG[Nle]STWS[Aib]RK(Ac)KK([PEG2″-PEG2″-γGlu-γGlu-γGlu-Stearoyl])-NH2", "note": "[peptide of SEQ ID NO: 72]", "EC50 (nM), OVCAR 5 cells (cAMP)": 0.17, "EMax, OVCAR 5 cells (cAMP)": 93}, {"binder": "Ac-LEGREKVRAQI[Aib][Aib]EG[Nle]STWS[Aib]RKK([PEG2″-PEG2″-PEG2″-γGlu-γGlu-γGlu-Stearoyl])-NH2", "note": "[peptide of SEQ ID NO: 74]", "EC50 (nM), OVCAR 5 cells (cAMP)": 0.07, "EMax, OVCAR 5 cells (cAMP)": 85}, {"binder": "Ac-LEGREKVRAQI[Aib][Aib]EGESTWS[Aib]RKKK([PEG2″-PEG2″-γGlu-γGlu-γGlu-Stearoyl])-NH2", "note": "[peptide of SEQ ID NO: 68]", "EC50 (nM), OVCAR 5 cells (cAMP)": 0.63, "EMax, OVCAR 5 cells (cAMP)": 94}]}]}
